Results from article PMC11398566.

B1: p115-RhoGEF-RlucII (Gα12/13 binding domain of human p115-RhoGEF, residues 1–244) (domain or fragment)
chain: MEDFARGAASPGPSRPGLVPVSIIGAEDEDFENELETNSEEQNSQFQSLEQVKRRPAHLMALLQHVALQFEPGPLLCCLHADMLGSLGPKEAKKAFLDFYHSFLEKTAVLRVPVPPNVAFELDRTRADLISEDVQRRFVQEVVQSQQVAVGRQLEDFRSKRLMGMTPWEQELAQLEAWVGRDRASYEARERHVAERLLMHLEEMQHTISTDEEKSAAVVNAIGLYMRHLGVRTKSGDKKSGRNF

Key:
[1] = target: Gα13 (GNA13, full-length, from the cDNA resource center) (UniProt Q14344)
[2] = target: Gα13 (GNA13, full-length, from the cDNA resource center) (UniProt Q14344); remark: listed apart in the source
[3] = target: Gα13 (GNA13, full-length, from the cDNA resource center) (UniProt Q14344); remark: listed apart in the source
[4] = target: Gα12 (GNA12, full-length, from the cDNA resource center) (UniProt Q03113)
Sequence of UniProt Q03113 (Q03113 whole entry): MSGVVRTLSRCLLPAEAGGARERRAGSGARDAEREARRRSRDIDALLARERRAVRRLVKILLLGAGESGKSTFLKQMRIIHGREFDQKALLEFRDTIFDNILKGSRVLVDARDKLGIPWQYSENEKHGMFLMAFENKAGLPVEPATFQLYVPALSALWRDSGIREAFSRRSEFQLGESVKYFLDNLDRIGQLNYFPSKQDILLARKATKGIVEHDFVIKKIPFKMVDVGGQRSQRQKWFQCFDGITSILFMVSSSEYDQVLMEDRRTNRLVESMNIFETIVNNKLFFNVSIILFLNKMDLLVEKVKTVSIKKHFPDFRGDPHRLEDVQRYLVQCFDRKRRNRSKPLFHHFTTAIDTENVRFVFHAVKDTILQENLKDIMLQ

[5] = target: Gα12 (GNA12, full-length, from the cDNA resource center) (UniProt Q03113); remark: listed apart in the source
[6] = target: Gα12 (GNA12, full-length, from the cDNA resource center) (UniProt Q03113); remark: listed apart in the source

Sequence of UniProt Q14344 (Q14344 whole entry): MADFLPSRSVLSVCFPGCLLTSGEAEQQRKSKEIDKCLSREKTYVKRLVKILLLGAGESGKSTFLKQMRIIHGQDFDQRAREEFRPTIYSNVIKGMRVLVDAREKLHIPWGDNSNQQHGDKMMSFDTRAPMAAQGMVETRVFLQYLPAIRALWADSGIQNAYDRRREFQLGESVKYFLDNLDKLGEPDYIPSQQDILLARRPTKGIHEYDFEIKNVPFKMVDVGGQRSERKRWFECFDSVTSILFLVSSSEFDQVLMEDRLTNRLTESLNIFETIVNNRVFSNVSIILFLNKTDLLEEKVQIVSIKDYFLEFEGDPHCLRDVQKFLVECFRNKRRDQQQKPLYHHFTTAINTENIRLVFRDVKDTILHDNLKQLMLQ

Row | Molecule | ebBRET between PDZ-RhoGEF-RlucII and rGFP-CAAX, ΔGα12/13 cells with Gα13 and GPR56-T383A, time course after 20 nM 10C7, ΔBRET max [1] | ebBRET between PDZ-RhoGEF-RlucII and rGFP-CAAX, ΔGα12/13 cells with Gα13 and GPR56-WT, time course after 20 nM 10C7, maximal ΔBRET after 24 min [2] | ebBRET between PDZ-RhoGEF-RlucII and rGFP-CAAX (recruitment to the plasma membrane), ΔGα12/13 cells with Gα13, constitutive, GPR56-WT DNA up to 250 ng; no increase without Gα13 [3] [BRET ratio] | ebBRET between p115-RhoGEF-RlucII and rGFP-CAAX, ΔGα12/13 cells with Gα12 and GPR56-T383A, time course after 20 nM 10C7, ΔBRET max [4] | ebBRET between p115-RhoGEF-RlucII and rGFP-CAAX, ΔGα12/13 cells with Gα12 and GPR56-WT, time course after 20 nM 10C7, maximum ΔBRET at 8 min [5] | ebBRET between p115-RhoGEF-RlucII and rGFP-CAAX (recruitment to the plasma membrane), ΔGα12/13 cells with Gα12, constitutive, GPR56-WT DNA up to 250 ng; no increase without Gα12 [6] [BRET ratio] | ebBRET between p115-RhoGEF-RlucII and rGFP-CAAX, ΔGα12/13 cells with Gα12, constitutive, increasing GPR56-T383A DNA, maximum [6] [BRET ratio]
1 | PDZ-RhoGEF-RlucII (Gα12/13 binding domain of human PDZ-RhoGEF, residues 281–483) (from UniProt O15085 281-483) (domain or fragment) | 0.5 ΔBRET | 0.7 ΔBRET | 0.44 | – | – | – | –
2 | B1 | – | – | – | 0.2 ΔBRET | 0.19 ΔBRET | 0.44 | 0.228
